Measured values: patent publication US20170058015A1 (ALBERT EINSTEIN COLLEGE OF MEDICINE, published 2017)

B1: recombinant mouse 4-1BB-Fc fusion protein (Fc fusion, UniProt P20334 24-187, looked up)
chain: VQNSCDNCQPGTFCRKYNPVCKSCPPSTFSSIGGQPNCNICRVCAGYFRFKKFCSSTHNAECECIEGFHCLGPQCTRCEKDCRPGQELTKQGCKTCSLGTFNDQNGTGVCRPWTNCSLDGRSVLKTGTTEKDVVCGPPVVSFSPSTTISVTPEGGPGGHSLQVL
notes: From commercial sources; coated on Protein A microbeads; also called murine 4-1BB; murine receptor; not shown: Fc of the commercial fusion protein

Experiments:
[1] = target: 8.3 T cell receptor on CD8+ T cells of 8.3 TCR transgenic NOD mice (mouse (NOD)); assay: cell-based or functional assay
[2] = target: T1, synTac 4-1BBL trimer (synTac 40+51; 4-1BBL synTac co-expressed with free 4-1BBL) (murine, UniProt P41273 50-254 (human entry), Interchain disulfide between linker Cys (GCGAS) and H-2Kd Cys84. Fc hinge disulfides join two synTac units. Two free 4-1BBL chains join each synTac-borne 4-1BBL non-covalently.); assay: flow cytometry, Protein A microbeads coated with 4-1BB-Fc; detection antibody to the synTac heavy chain isotype
T1 construct: also called Native trimer; trimeric syntac-41BBL

Molecule | IFNγ secretion by anti-CD3 stimulated CD8+ 8.3 T cells (suppression) [1] [fold] | binding result [2]
synTac IGRP-PD-L1 (light chain version) (from UniProt Q9Z186 206-214; P01902 22-305) (peptide-MHC) | 100 | –
B1 | – | binds
